We go through 47 sequences from the NTF2 design screens of Basanta et al. (2020).

The data set in a line: protease stability score; higher = more stable; yeast display proteolysis, trypsin and chymotrypsin.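 Also: relative to predicted unfolded state with 0 unfolded-like and 1 meaning tenfold more protease.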
In turn, “SEEKHMYKKLIEEWLKSVITGDEEHIQHLVDPDVRMTIIFENHELRAVGWEEVVRVLKEIRIKHFELRRWDDVNGRVHLDGQMTIQFNGQEHQTSTHIEIMFINGRVKEIRLIIT” had a protease stability score of 0.986. As for “SEEKHYFDSMLEIWRHLMQTGDERLFSELFDPNALVLFNGRHDHGRDAFRWILLQLRIDHINVHLRDFRKQGNKIIIHSEIEVDFTVNGQRREDSHMQIIIFHKIDGRWYATSLEVQ”, the figure is 1.53; as for “SEEKKAIDEVLRLIFEAELTGNEDELEHLIDPHVKFHIDGVDVHGWEYLSYWIRQIRIHNLHPRSVEIHVYNGRVEVNIRGHYEGTINGRRTTFDMRVHIRIEKIDGVWIVREMSRHNH”, 1.7; as for “SEEKKALDILLKTLIHTHQTGDEHTVRELVDPHVRIDFNGQELHGWEDARRFIVEMRLKHVDLRRVHHQGEKVELDGEVDGTYNGQEFHSKLHIVMRKVNGRWVFSQIEIK”, 1.17. As for “SEEKKAWKLSLELHRRYVETGNEEDLIRFLDPHVRLEFNGQQYVGWEEVIRIMEELGFDVLKEIRLHSLDFQGEYVEVDGEVNGNINGRDRDHRIKFRMLKVDGKWLNHSVHVI”, the figure is 1.36. As for “SEEKKESDKFFEEWVRSAQTGDEDRVREMLDPNARVEIGDKTYVGRELFLRIMVEIRIKDIILKDIRIQGDKLRNDGELLITVDGKEIRVETHIIAEKVDGRWVLSRFVWH”, the figure is 1.35; as for “SEEKKFLEKAHREILHLYKTGDEDRMSELADPDVRMRLVINGQERHHHGREEFERVFREMLDRFGVKHVEDEDSDLVNGQVHIKGTERFNGKEVRFNIIIVWVDGRVHMLSVEYR”, 0.264; as for “SEEKKFSMEMLELLLHLLLTGDWDKLNKEFDPDYRLIIGDKETIGRESVRERLRLEIERIDHIHDVKIEDWKVQGDKAHIRLRVDGNIDGKRKEFESELIVIIVDGRMKSVRIIIK”, 1.97. On to “SEEKKHVEEVARHILHLFLTGDEELWSNMADPNMRYLWNGREIVGRDLVREQNKELRTHSIEITHIEVFDGRARVRVNVDYQIGDKRINTHSLVIIVIINGRIESVFIKHD”, for which the protease stability score was 1.27. The sequence “SEEKKLYDLAWELLLQSEKTGNEEIFERLADPHVRSHINGVDYIGRERFSELAHEINRELRIEDIHLHDVDLQGDKVNMSGSLTGHVNGKRHEYTMKIHFEKINGRWIIRSVSWE” came in with a protease stability score of 1.39. As for “SEEKKQSDEAWELYIKSVETGDFRMLHELLDPNVKIHIGDKDIHGREYIMEHMLKFGVTTQSRFEVKDIKLQGDFVIIHGHIRSIFHFNGRTLRVEHDVEIFATKFDGRWWTHSVEVN”, the figure is 1.18; as for “SEEKKWEDDFMEDFLRAFHTGDFHRLLELLDPHVRIEINFENRKIDLIGREEFEKWMRRVKNARFHVEHWHSINGVNFSDTVLRYGDKEQKTELIFHVYNGKVKHIDVEFH”, 2.26. Turning to “SEEKQDVDEFIKRVIETLETGDWRNRHDLLDPNVRIDIDGVELIGRHIALELDWYFLRHARVRMYIRHVNVQGEYMDVDGRLHIHQGDKNIHIETRLIVHKINGRWLIKSIELR”, the protease stability score was 2.87. With “SEEKRDSHQAIHLFIKNRVTGNWKDLYKNVDPHARLEIGDKHFHGRELFVRLMLELGVDHFDIESVDIQGDFIHIKGQIDVNGRTLDVELVAWKYNGRWYEHSVIIK”, the protease stability score stood at 1.16.

Turning to “SEEKRIDQHFTEQLDRLIETGDEEQLNKLADPHARLIFNGRTEHGREESHKLRHELLERWGHDRVHVELKDMEVQGDKLIVHTVIQINGVKFHVEIIVRKINGRWKMTEVRII”, the protease stability score is 0.314.

Turning to “SEELEHAERLDRMIAKAYSTGDEDVFRELLDPHVKIHDEDHHSHGMEWIRYHIERFKNVRSSVEVRRYHVQGNKIFSDGVFRLQVGDKDITRRVLFVVLKVDGRWIMESIHIE”, the protease stability score was 1.08. As for “SEELELAKWLLEEWIRAVETGDERTLKELADPDVKMHIGDKNHIGWEEYVRFLRHLRITVRRMEVKHMHVFDGRIHIHGHFDIEINIGDKHLRRHHDVEIILVVVDGKLTSIEIRNH”, the figure is 1.5; as for “SEELRILVELVSKFYDAMKTGDEKTLKELADPNMRIIVGDKVLHGMESLKTHLKRIDHIYVHHFDYKKVDVQGDKVHVRGHSNLVLEFENHREEVIIHENWIVTKYNGRWSLESLEIR”, 1.49. In turn, “SEEMHWAKEFYKALLKSWRTGDEELIKDLMDPHVRLHYGDKELHGREEFVRFIQEHVSRVDHIDIHIDDMKLQGNKVHVDGIIIIHVNGRDINIRSEYIIYKVDGRWHLETVHIH” showed a protease stability score of 1.59. The sequence “SEENEAAKLVIEKLNHSWKTGDWRLSEKLMDPDVRVHINGQDLHGREQARKFLEEIRLHMRDVKVKEIRIVDGRLETHGHVHIELIFDGRVFRIERDVESVVLKFNGKWTLESLEVI” showed a protease stability score of 1.21. Take “SEENEHLHHLMRLVIEMFETGDEDRWYKLADPNTRMEVDGREFIGREEVIKFLRNLGVNHFWIDDVDIINGRAHIRSTLRFNGQERDLNINLHFVDGKLKREKWIIR”: the protease stability score turned out to be 0.841.

“SEENELAERFFKELRDHFETGDEDVLDEMADPNMKLHINGRNFHGMHVYSKLARWLVDHWRSEFKVRRIEVQGNKIIIDSQLTLHIDGQRIIHDTRMESEKVNGKWLLRQFIVV” returned a protease stability score of 1.71.

“SEENEVIHRVIYYWIRAMKTGDEHLVSRLFDPNARHEIDGVDHVGWEEILKFFRRFDHLHHFHVNHIESHGDKIILDGRVDGEVNGQHLRFHVEIISLKVNGRWINQSEHVH” displayed a protease stability score of 1.81. As for “SEEQDWLREALEIFEKTIHTGDEDTSKELADPHVRSIINGKDFVGMEIWTKILEELNKRYDHIELVFHKVENINGRVIIHGTDTIRVDGVERKIDTIIYARKVNGKWLSKSVEMR”, the figure is 1.34. As for “SEEQEEMRKLLKEFWHHTQTGDEDSFKRLADPDVKLRIDGKNYHGREATEFFTRRFDVIHDLRIHHMTIQGDWVRLEGTMHIEVGNYHDTKDVRIIILKYNGRWVNHEVRIH”, the figure is 0.741. Sequence “SEEQEHTREAMEVYLHLMHTGDWDRFRELVDPNVRMNINGVDLHGWEELTRFMEIFWRDLGFDHFKIHEMRIYGEKSHIRGESIIGDKSREVHIHVVIVNGRIKSEKFVET” yielded a protease stability score of 0.83. “SEEQEITEHFSHLWLEWYLTGDFHKMLKFADPNTKMHIGDKHDHGMERYQEYERRFLEQYKGAKIYIKTVEHYDGRVVIDNIFRFDGREYQLIIEIIVVDGRLKSVHSDMK” had a protease stability score of 1.25. The sequence “SEEQEKSEEFWRLVVEFLLTGDEHQILNLLDPNVLTEIGDKKYHGRELASEVLRRYADEIRLKEVELHDRDEVNGVLHLHTVVRGEYNGREINLESHWELEKVDGRWHIKRVEIR” returned a protease stability score of 1.6.

“SEEQELLKKLAHENHESQRTGDEDFFHKLADPDARIRVGDKEIHGMEKVLEFWKTFRRQFKGLVVHLEDSHVINGQTFLHRNVNFNGVEEELEIILVVVDGRIKSIEIHLRRR”: the protease stability score stood at 0.653. On to “SEEQENAERILRMWIHALETGDEHTQKRLLDPNVRDEVNGVEFHGRERAVKLMNDLHEELRIKDWIPRDIHLVNGVLILHVEVRLEVDGQSRNHEVIIVIKKVNGRWFIHRIHVR”, for which the protease stability score is 1.45. As for “SEEQEVARDFFKILTHFHQTGNEEIVHELFDPNVRLHVGDKEVHGREEFIKVERELRTDDMHLRHVELQGEFIRIDVRAKGRVNGRDLEFHVHIVVRKVNGRWILTSLHIK”, the figure is 0.446; as for “SEEQHHLYSVFVRLIRNHWTGNERELHELADPNTRHTVGDKTYHGMEHVAWLLTEWVKEARLEIILRDVHVFDGRVESRIEFRLRYGDFKTTHEVRVEVNVVDGRLKEMEIDIN”, 1.43. With “SEEQHHVEKVLWDFSHALMTGDWETVEDLVDPNVRIHINGKDFHGREEFHRLVREIRVHVEINLKSVEHIDGQATADTDVIVHLDVGDKQIDRRTRTEVIQQKFDGKWLIHTIIHR”, the protease stability score was determined as 0.956.

“SEEQRLSEELFKRLVDYLLTGDWHSLKELLDPHVKVVVNGKEEIGRERMARHWLELHEKVPNMKSEFRLRYYEIQGDKAHYEVEIILHVNGRIRHIDIEVVMEKVDGRWMLHSITIR” had a protease stability score of 1.3. “SEEQTRLEEETRLLIELLTTGNEEEWARMFDPHARVDLHIGDKTIHSIGRENISELVRLLRHWLGVNHNHSTQLRVIDGVSVLHTESKVGDKHSKVTWIFVIVDGRLKTMEIRVRID” yielded a protease stability score of 1.33. As for “SEERAKKVAKKLMEAFVKGNKDDAKDALQEDVQLHIAGTTYHGPKAVEKLIEFWQRVGVEVKVQEVRVKGNHVEIQTQVHLGDNTTTVRYKIQVEGDKVKKLQLNFSEEVFKQAKDG”, the figure is 2.

“SEERDHARRALNKMWKAIETGDEDTFEKLMDPDVRIEIGDKEIHGRELYVKIWQEMRFHIRRTRITDSKTFNGRVDIEFEEDFEIIVGDKIERYDYRVTFHSLKVNGRWEHSSMRLH” gave a protease stability score of 0.202. For “SEEREDIREIIEILLHHIHTGDWREVTNLMDPNALLVYGDKIFIGREEFHKVIKRHSEEWRIHHVELKDIEVQGNKAHVDGRLDGEIDGRRVTLTTEIIAVKINGRWHVHEIVLK”, the protease stability score was 1.23. As for “SEEREDSKKFLELVLTSWITGDWRQINKNFDPHARSHVGDKEIHGMDHVAHRMNEHLERADHIHFYLEDEHIQGNKIHVDGILQLVINGVDIRMRIRLVVLKINGRWQVHSIEIK”, the protease stability score was found to be 1.14. As for “SEEREEFEHWAKLVVHLLLTGNWEDFVKLLDPDTRFRDEDEETVGREEVEKAVNRLLDRVDHIKSVHIRHLDVINGRAFMHGQLVGHVDGRETHTEVRIKLVVVNGRIKSLQIDYK”, the figure is 1.99; as for “SEEREKAERISRTLFFNFFTGDEDDWNKRADPTDRFIIGDKELVGMEEISKFLKHLRVHHEQLSDLRINLQGDKLHSHLDGYVDIEFNGRRRRTRVIIIIVVFKVNGRWTIEQFEVEFH”, 1.73.

Turning to “SEERERVRKIHEWLVRFLETGDEESFNHLADPNMRLIVWYNGVNIVFIGRESWREFLRLFREEMRLHRIRVHHVDVQGEKVTSDTRNDGEVNGQRTEFETHVEVVLINGRLKLVLLEFK”, the protease stability score came out at 2.33. As for “SEERHAVERYTEELARAISTGDEEKRLELLDPHVRYLQGDKHIHGRDEVWRHEHRQMEDLGVTRIEMRIRHIRIFNGRVEIEGEVRIGEFEMHFIIYVLKIDGRWIITQEEYS”, the figure is 0.393. As for “SEERHELERTLKRYQDALITGNEEQMEKLIDPNVRTRIDGVDLIGMELVIEELVEWLDRYPNVRIHSHIHEVRFQGDKADIDSRLHLIFDGQEYRLHTRIHIWKFNGRWVLTHSEID”, the figure is 0.884; as for “SEERHLEELMYKWVRQMIETGDEDLERKLADPHVRSDINGVDLHGREEMIKEIKRLEDWLGIDHREFKTITFINGRIHVHIKLNVNGKDIKSIHIYDVIDGRLKEVSVRFR”, 1.19; as for “SEERKELKDIADEIFERHLTGDWKTFLRLADPNVRLQVNGKDIHGREEVVRWLNEIRYHHLTIHDRTVVDGVVISDVEEDGQVNGQKSRYRVHYVFVVVDGRFKSIHVTIT”, 1.3.

Sequence “SEERSRVLHYLSLFIHFLETGDWKALYELMDPDVRIHVGDFELHGRHIFVRHLRDLGIKHVEESIRVRRMILIDGVIHMDGHLERHLIVGDKRVDERHEVHEVILKVDGKWFVHSIHVK” displayed a protease stability score of 1.14.
